Experimental data as given in US7572594B2, “Screening assays for agonists or antagonists or receptor activator of NF-κB” (Immunex Corporation, priority 2000, dated 2009).
Entries after “also recorded” stand apart in the source; their conditions may differ.

Experiments:
[1] = test system: c-src tyrosine kinase; test: c-src immune complex kinase assay in RANK −/− osteoclast precursors infected with RANK retrovirus; type: cell-based, mouse
Experimental: Experiments were conducted in which DNA encoding wild-type or human RANK/TRAF6 binding mutant (RANK Δ340-421) was introduced into hematopoietic cells isolated from RANK −/− mice. Full-length and mutant human RANK DNAs were subcloned into the pBMNZ retroviral vector as previously described (Kinsella and Nolan, 1996, Human Gene Therapy 7:1405-1413). Infectious RANK-containing retrovirus was produced in 293-E Phoenix packaging cells as described (Kinsella and Nolan, 1996). Supernatants from these cells were used as a source of infectious virus particles.
The generation of the RANK −/− mice used in these assays has been described previously (Dougall et al., 1999). Spleen cells were isolated from 3-6 week old RANK−/− mice and enriched for osteoclast precursors by depleting the initial cell population of various types of cells other than osteoclast precursors. For this “depletion” step, the cells were incubated with biotinylated antibodies against CD3 (specific for T cells), Ter-119 (specific for erythrocytes), and GR-1 (specific for granulocytes). After the antibodies had bound to their respective target cells, streptavidin-conjugated magnetic beads were added to the culture, and the mixture of cells was passed over magnetic columns (MACS depletion columns; MILLTENNYI). […]
To induce c-src and F-actin rings, recombinant mRANK-L/leucine zipper protein was added to the cultures at a concentration of 1 μg/ml for various times after which the cells were lysed in a buffer containing 50 mM HEPES (pH 7.2), 10% glycerol, 250 mM NaCl and 1% Triton X-100. […] C-src activity in the immune complex was monitored using a commercially available assay kit (Upstate Biotechnology, Lake Placid, N.Y.). […] The phosphorylated substrate peptide was then separated from the residual labeled ATP using phosphocellulose paper and labeled peptide was quantified using a scintillation counter. […]

[2] = test system: spleen cells from RANK −/− mice; test: CaPO4 resorption (pit formation) assay; type: cell-based, mouse; conditions: 5 days in 40 ng/ml CSF-1 and 200 ng/ml mRANK-L on CaPO4 film; listed as full-length RANK
Source text: The resorption of CaPO4, upon which this assay is based, is considered to be a measure of osteoclast activity. Spleen cells were isolated from 3-6 week old RANK −/− mice and treated as described in Example 9 to remove cells expressing the CD3, Ter-119, and GR-1 antigens. Cells not expressing any of these antigens were harvested and infected as described in Example 9 with retroviral vector particles containing full-length or TRAF6 binding site deletion mutants of RANK.
Following infection, the spleen cells were harvested and plated in MEM containing 10% fetal bovine serum containing 40 ng/ml CSF-1 and 200 ng/ml mRANK-L onto 16 well quartz slides coated with a thin film of CaPO4 (Osteologic, BD Biosystems). After 5 days in culture, the slides were washed, the cells removed by washing with bleach, and the slides washed again with buffer. […] The number of pits in the CaPO4 film is a measure of the extent to which the RANK-L induced the cells grown on that slide to differentiate into osteoclasts.
If desired, the CaPO4 film can be stained using a 0.5% solution of alizarin red for 4 to 5 minutes followed by washing in water. After staining, the resorptive lacunae are visualized by phase contrast microscopy as a clear area on a red background.

B1: wild type RANK: full-length human RANK, receptor activator of NF-κB (SEQ ID NO:2), expressed from vector or retrovirus (protein, listed as Homo sapiens)
chain: MAPRARRRRPLFALLLLCALLARLQVALQIAPPCTSEKHYEHLGRCCNKCEPGKYMSSKCTTTSDSVCLPCGPDEYLDSWNEEDKCLLHKVCDTGKALVAVVAGNSTTPRRCACTAGYHWSQDCECCRRNTECAPGLGAQHPLQLNKDTVCKPCLAGYFSDAFSSTDKCRPWTNCTFLGKRVEHHGTEKSDAVCSSSLPARKPPNEPHVYLPGLIILLLFASVALVAAIIFGVCYRKKGKALTANLWHWINEACGRLSGDKESSGDSCVSTHTANFGQQGACEGVLLLTLEEKTFPEDMCYPDQGGVCQGTCVGGGPYAQGEDARMLSLVSKTEIEEDSFRQMPTEDEYMDRPSQPTDQLLFLTEPGSKSTPPFSEPLEVGENDSLSQCFTGTQSTVGSESCNCTEPLCRTDWTPMSSENYLQKEVDSGHCPHWAASPSPNWADVCTGCRNPPGEDCEPLVGSPKRGPLPQCAYGMGLPPEEEASRTEARDQPEDGADGRLPSSARAGAGSGSSPGGQSPASGNVTGNSNSTFISSGQVMNFKGDIIVVYVSQTSQEGAAAAAEPMGRPVQEETLARRDSFAGNGPRFPDPCGGPEGLREPEKASRPVQEQGGAKA
- 32P incorporated into a c-src-specific substrate versus extracts from cells defective in RANK ([1]; cell extracts following differentiation): about 15 fold
- c-src activity ([1]; cells differentiated after retroviral infection, background = uninfected RANK −/− cells): high levels of c-src activity
- CaPO4 resorption [2]: resorbed the CaPO4 matrix; also recorded: high levels of CaPO4 resorption
